Where no end group is shown, it is not given here.
Key:
[1] = target: p7 protein from the Hepatitis C virus (HCV) (Hepatitis C virus) (UniProt O39928); assay: cross-linking
[2] = target: transmembrane domain of Fas (Fas-TMD); assay: SDS-PAGE
cross-linking = target: the molecule itself; assay: cross-linking

Molecule: p7 protein from the Hepatitis C virus (HCV) (from UniProt O39928 748-810) (natural protein)
- stoichiometry N [1]: 6

Molecule: RSNLGWLCLLLLPIPLIVWVKRKEVQKT (domain or fragment, modifications not checked) [transmembrane domain of Fas (Fas-TMD)]
- stoichiometry N [2]: 3

Molecule: RSNLGWLCLLLLPIPLIVWVKRKEVQKT-His6 (domain or fragment, also: primary amines blocked with Sulfo-NHS Acetate) [Fas-TMD with a C-terminal His6-tag]
- stoichiometry N (cross-linking): 3

From article PMC7238434 (Nature protocols, 2019)
